Results on two molecules are retold here after US20120214748A1, “NOVEL PEPTIDES, PROCESS FOR PREPARATION THEREOF, AND USE THEREOF” (priority 2009, published 2012).

For one assay, the target named is Thrombin. As to the kind of experiment: enzyme inhibition, Z-Gly-Pro-Arg-pNa substrate, tight-binding fit.
Assay [1] addresses MASP-2 CCP1-CCP2-SP (human), O00187. As to the kind of experiment: enzyme inhibition, Z-L-Lys-SBzl substrate, tight-binding fit.
For the next assay, the target named is Trypsin. The assay is described as above.
Chain of Trypsin (P00760 24-246): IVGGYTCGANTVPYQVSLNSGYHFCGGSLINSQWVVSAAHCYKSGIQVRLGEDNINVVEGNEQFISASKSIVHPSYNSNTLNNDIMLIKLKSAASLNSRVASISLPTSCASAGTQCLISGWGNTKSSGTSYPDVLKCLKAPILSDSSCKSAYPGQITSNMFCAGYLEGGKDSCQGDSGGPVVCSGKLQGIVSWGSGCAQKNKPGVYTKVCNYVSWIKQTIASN

Chain of MASP-2 CCP1-CCP2-SP (human), O00187 (O00187 298-686 limits assumed): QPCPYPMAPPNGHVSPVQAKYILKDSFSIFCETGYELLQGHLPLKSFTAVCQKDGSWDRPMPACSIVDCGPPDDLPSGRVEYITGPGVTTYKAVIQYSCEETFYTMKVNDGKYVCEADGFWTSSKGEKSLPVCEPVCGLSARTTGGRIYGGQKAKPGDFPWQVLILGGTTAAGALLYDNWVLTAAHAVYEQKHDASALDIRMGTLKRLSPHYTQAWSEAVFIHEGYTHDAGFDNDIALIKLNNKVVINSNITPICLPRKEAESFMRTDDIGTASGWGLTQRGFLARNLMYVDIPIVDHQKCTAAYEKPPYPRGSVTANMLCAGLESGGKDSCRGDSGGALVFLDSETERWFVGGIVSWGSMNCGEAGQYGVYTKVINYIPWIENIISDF

B1: wild-type SFTI (Sun Flower Trypsin Inhibitor) (peptide)
peptide: GRCTKSIPPICFPD
modifications: not checked
Usually Ki stands for a dissociation constant, usually derived from enzyme kinetics or from competition with a known ligand. Low values mean tighter binding, high ones weaker binding. In the assay with Thrombin, B1 showed an inhibition constant Ki of 140 µM.

B2: M2-6E (peptide)
peptide: GYCSRSYPPVCIPD
modifications: not checked
For the molecule B2, the Ki stood at 0.18 µM in assay [1], 1 µM with Trypsin and 550 µM with Thrombin.
